In patent US20220184221A1 (NUVOBIO, published 2022):
Where no end group is shown, it is not given here. [ ]: non-standard residue; d: D form. Nle = CCCC[C@H](N)C(=O)O

B1: EP4 (peptide)
peptide: TEDSKTHHH
modifications: also: fluorescein label in FP assay, end not given here
notes: Fluorescein-labelled in the fluorescence polarization assay; also called EP4 peptide

Biological target: T1, recombinant KDM5C (Homo sapiens (Human), UniProt P41229 1-765)
T1 construct: Expressed in SF9 cells from baculovirus, purified on Ni-NTA and detected with an anti-His antibody; also called KDM5C-His6; JARID1CA-c022; not shown: His tag (KDM5C-His6, vector pFB-CT10HF-LIC)
T1 sequence: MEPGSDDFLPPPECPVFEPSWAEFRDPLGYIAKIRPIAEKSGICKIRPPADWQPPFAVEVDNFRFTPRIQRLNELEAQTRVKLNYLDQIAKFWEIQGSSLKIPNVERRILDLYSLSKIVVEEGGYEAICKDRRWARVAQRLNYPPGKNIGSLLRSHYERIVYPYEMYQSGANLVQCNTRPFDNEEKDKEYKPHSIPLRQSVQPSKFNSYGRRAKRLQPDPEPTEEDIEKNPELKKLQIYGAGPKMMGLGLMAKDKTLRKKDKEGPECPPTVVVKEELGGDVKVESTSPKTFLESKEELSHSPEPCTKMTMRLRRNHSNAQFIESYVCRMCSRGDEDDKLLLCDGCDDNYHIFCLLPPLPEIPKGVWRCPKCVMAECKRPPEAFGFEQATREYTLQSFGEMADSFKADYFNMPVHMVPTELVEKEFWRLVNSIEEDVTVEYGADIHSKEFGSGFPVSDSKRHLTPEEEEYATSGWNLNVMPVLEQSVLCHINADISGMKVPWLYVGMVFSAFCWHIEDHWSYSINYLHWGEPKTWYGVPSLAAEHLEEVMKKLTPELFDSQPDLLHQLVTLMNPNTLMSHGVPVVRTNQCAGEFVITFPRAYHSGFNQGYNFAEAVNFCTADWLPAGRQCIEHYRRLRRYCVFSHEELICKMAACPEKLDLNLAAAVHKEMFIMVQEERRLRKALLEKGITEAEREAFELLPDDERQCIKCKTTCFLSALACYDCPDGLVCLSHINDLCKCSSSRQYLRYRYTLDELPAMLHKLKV
Assay: fluorescence polarization; fluorescein-labelled peptide, recombinant KDM5C serially diluted

Q: Which Kd does the source give for B1 here?
A: 0.11 nM

Biological target: T1, recombinant KDM5C
Assay: OPAL peptide arrays on cellulose probed with 1 uM His-tagged KDM5C, anti-His-HRP chemiluminescence;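 further: binding of target protein to each arrayed peptide after overnight incubation at 4 °C, read as densitometric chemiluminescence signal intensity per spot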
Procedure: The potential inhibitor peptides were initially screened based on the binding affinity between the peptides and target proteins. All the steps were carried out at room temperature unless otherwise stated. The OPAL cellulose macro arrays are presoaked in 100% ethanol followed by 50% ethanol for 15 min with constant rocking. The membrane is then washed with distilled water three times each of 15 min. The processed membrane is first blocked with 5% nonfat dry milk in Tris buffered saline containing 0.05% Tween 20 (TBST) for 1 hr at room temperature. Finally, the array was equilibrated with peptide binding buffer (50 mM Tris-CI, 350 mM NaCl, 10% glycerol, 0.5 mM DTT and 0.05% Tween20). The array was then incubated with 1 μM of target protein overnight at 4° C. under rotation. The excess protein was washed away by three consecutive 10 min washes with TBST. Each array was then incubated with HRP conjugated anti-His antibody (1:5000) in TBST for 1 hr. The array was then washed thrice each of 10 min. The signals were detected using chemiluminescence. The signal intensities observed were subjected to densitometry analysis using ImageJ software protein array analyzer.

Q: Does SETQ[Nle]THHH [EP38] bind?
A: binds

Q: Does SETS[Nle]THHH [EP39] bind?
A: binds

Q: Does SDQQ[Nle]THHH [EP30] bind?
A: binds

Q: Does SDQT[Nle]THHH [EP32] bind?
A: binds

Q: Does TTQSKTHHH [EP6] bind?
A: binds

Q: Does TTQTKTHHH [EP16] bind?
A: binds

Q: Does TTQQKTHHH [EP11] bind?
A: binds

Q: Does TDDQ[Nle]THHH [EP33] bind?
A: binds

Q: Does TDTT[Nle]THHH [EP21] bind?
A: binds

Q: Does TDST[Nle]THHH [EP37] bind?
A: binds

Q: Does TDTQ[Nle]THHH [EP22] bind?
A: binds

Q: Does TEDQ[Nle]THHH [EP25] bind?
A: binds

Q: Does TEEQ[Nle]THHH [EP29] bind?
A: binds

Q: Does TEES[Nle]THHH [EP35] bind?
A: binds

Q: Does TEEN[Nle]THHH [EP34] bind?
A: binds

Q: Does TEDS[Nle]THHH [EP24] bind?
A: binds

Q: Does TEDT[Nle]THHH [EP28] bind?
A: binds

Q: Does TDDN[Nle]THHH [EP40] bind?
A: binds

Q: Does TDTS[Nle]THHH [EP27] bind?
A: binds

Q: Does TDTN[Nle]THHH [EP23] bind?
A: binds

Q: Does RTKQTARKSTGG [EP41] bind?
A: binds

Q: Does GAKRHR[Nle]VLRDNI [EP44] bind?
A: binds

Q: Does TTQS[Nle]THHH [EP26] bind?
A: binds

Q: Does TTQQ[Nle]THHH [EP31] bind?
A: binds

Q: Does TTQT[Nle]THHH [EP36] bind?
A: binds

Q: Does TDDQKTHHH [EP13] bind?
A: binds

Q: Does TDTNKTHHH [EP3] bind?
A: binds

Q: Does TEDTKTHHH [EP8] bind?
A: binds

Q: Does TDTTKTHHH [EP1] bind?
A: binds

Q: Does TEENKTHHH [EP14] bind?
A: binds

Q: Does TDDNKTHHH [EP20] bind?
A: binds

Q: Does TDTQKTHHH [EP2] bind?
A: binds

Q: Does TEEQKTHHH [EP9] bind?
A: binds

Q: Does TEDQKTHHH [EP5] bind?
A: binds

Q: Does TEESKTHHH [EP15] bind?
A: binds

Q: Does TDSTKTHHH [EP17] bind?
A: binds

Q: Does TDTSKTHHH [EP7] bind?
A: binds

Q: Does GAKRHRKVLRDNI [EP43] bind?
A: binds

Q: Does SETQKTHHH [EP18] bind?
A: binds

Q: Does SETSKTHHH [EP19] bind?
A: binds

Q: Does SDQQKTHHH [EP10] bind?
A: binds

Q: Does SDQTKTHHH [EP12] bind?
A: binds
